Article PMC9225675 (mAbs, 2022)

Molecular target: T1, LukF component of Panton-Valentine Leukocidin (LukF-PV) (Staphylococcus aureus, strain )
T1 chain: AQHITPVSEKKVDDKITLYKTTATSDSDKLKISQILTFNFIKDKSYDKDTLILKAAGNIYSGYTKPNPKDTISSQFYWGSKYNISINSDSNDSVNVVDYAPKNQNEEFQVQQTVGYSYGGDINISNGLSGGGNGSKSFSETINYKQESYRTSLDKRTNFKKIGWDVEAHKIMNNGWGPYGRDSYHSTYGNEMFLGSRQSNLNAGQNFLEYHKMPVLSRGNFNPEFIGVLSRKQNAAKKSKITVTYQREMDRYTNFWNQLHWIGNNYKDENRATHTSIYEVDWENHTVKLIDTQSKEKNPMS
Assay: BLI

B1: H5 mAb (broadly neutralizing antibody) (antibody, V domains shown)
VH: EVQLQESGPGLVRPSETLSLTCAVSGYSISSGMGWGWIRQPPGKGLEWIGSIDQRGSTYYNPSLKSRVTISVDTSKNQFSLKLSSVTAADTAVYYCARDAGHAVDMDVWGKGTTVTVSS
VL: DIQMTQSPSSVSASVGDRVTITCRASQGISRWLAWYQQKPGKAPKLLIYAASSLQSGVPSRFSGSGSGTDFTLTISSLQPEDFATYYCQQGYVFPLTFGGGTKVEIK
Kd: 0.4 nM
